Assay results from paper PMC3229523, “Identification of Lactoferricin B Intracellular Targets Using an Escherichia coli Proteome Chip” (PLoS ONE, 2011).
Ends that are not written are not given here. * marks the point of attachment. Biotin = O=C1N[C@H]2[C@H](CS[C@H]2CCCCC(=O)*)N1

Columns and labels:
Assay in all cases: peptide or protein array; E. coli proteome chip: purified His-tagged proteins printed in duplicate on Fullmoon slides, blocked with 1% BSA; 10 nM N-terminal biotinylated LfcinB with 1% BSA, room temperature, 1 h; detected with DyLight 649-labeled streptavidin, ratio to DyLight 549-labeled anti-His antibody; ProCAT normalisation, local cut-off; triplicate chips
Settings in all cases: both partners purified
YceC = target: T1, YceC (E. coli K-12, UniProt P0AA39 1-319)
T1 construct: YceC, E. coli K-12
T1 sequence (looked up): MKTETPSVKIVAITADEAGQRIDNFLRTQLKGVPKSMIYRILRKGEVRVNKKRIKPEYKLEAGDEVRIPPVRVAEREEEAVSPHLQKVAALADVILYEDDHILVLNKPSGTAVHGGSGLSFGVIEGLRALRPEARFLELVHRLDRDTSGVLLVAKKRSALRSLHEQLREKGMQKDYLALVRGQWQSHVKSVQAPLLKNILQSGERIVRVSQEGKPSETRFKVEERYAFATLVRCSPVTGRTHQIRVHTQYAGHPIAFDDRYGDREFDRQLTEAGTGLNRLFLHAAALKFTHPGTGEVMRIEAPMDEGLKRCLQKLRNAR

Smg = target: T2, Smg (E. coli K-12, UniProt P0A828 1-157)
T2 construct: Smg, E. coli K-12
T2 sequence (looked up): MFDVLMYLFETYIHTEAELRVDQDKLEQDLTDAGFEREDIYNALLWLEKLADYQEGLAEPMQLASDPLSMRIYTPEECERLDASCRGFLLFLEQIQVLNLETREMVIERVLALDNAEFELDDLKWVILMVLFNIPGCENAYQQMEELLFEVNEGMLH

YhhI = target: T3, YhhI (E. coli K-12, UniProt P28912 1-378)
T3 construct: YhhI, E. coli K-12
T3 sequence (looked up): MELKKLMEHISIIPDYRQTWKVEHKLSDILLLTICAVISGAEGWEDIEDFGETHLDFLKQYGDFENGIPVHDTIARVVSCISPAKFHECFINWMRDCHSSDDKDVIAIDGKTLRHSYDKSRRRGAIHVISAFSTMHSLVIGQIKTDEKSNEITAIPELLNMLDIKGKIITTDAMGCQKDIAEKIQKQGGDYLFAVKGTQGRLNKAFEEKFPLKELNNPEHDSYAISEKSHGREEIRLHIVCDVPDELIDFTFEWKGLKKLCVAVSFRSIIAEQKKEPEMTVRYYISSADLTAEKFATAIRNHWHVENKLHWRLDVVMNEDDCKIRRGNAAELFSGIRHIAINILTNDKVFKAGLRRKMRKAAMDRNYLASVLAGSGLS

NrdD = target: T4, NrdD (E. coli K-12, UniProt P28903 1-712)
T4 construct: NrdD, ribonucleotide reductase family, E. coli K-12
T4 sequence (looked up): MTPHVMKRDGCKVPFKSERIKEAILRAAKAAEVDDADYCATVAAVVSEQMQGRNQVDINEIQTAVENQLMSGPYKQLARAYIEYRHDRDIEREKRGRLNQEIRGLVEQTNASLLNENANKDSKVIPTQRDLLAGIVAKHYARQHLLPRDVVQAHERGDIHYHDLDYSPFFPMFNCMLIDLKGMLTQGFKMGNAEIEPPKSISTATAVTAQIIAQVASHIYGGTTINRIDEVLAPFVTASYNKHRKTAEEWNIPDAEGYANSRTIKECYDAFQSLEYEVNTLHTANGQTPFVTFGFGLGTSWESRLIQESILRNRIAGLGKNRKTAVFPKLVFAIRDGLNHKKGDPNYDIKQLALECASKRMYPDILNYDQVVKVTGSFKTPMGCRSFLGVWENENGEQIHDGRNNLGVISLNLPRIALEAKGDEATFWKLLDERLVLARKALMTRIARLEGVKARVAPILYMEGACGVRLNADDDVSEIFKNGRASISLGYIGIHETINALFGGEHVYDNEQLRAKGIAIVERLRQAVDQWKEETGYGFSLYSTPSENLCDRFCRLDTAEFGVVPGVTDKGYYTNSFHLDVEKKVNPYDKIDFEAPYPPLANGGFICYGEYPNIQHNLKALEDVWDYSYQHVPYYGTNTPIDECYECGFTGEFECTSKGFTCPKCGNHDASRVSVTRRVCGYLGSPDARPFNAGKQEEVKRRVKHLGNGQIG

YhjC = target: T5, YhjC (E. coli K-12, UniProt P37641 1-299)
T5 construct: YhjC, E. coli K-12
T5 sequence (looked up): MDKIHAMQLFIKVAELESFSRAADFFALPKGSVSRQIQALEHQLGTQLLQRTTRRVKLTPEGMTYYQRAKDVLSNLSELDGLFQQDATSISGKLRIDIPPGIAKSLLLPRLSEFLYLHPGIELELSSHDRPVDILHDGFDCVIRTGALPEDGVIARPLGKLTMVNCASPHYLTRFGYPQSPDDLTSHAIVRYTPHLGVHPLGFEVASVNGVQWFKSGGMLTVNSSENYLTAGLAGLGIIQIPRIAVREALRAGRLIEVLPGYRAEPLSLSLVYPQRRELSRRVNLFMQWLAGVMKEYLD

MalP = MalP (E. coli K-12, UniProt P00490 1-797)

Measured: binding result

B1: N-terminal biotinylated Lactoferricin B (peptide, UniProt P24627 36-60, looked up)
peptide: Biotin-FKCRRWQWRMKKLGAPSITCVRRAF
modifications: ends and bridges not checked
notes: lactoferricin B (LfcinB), cationic antimicrobial peptide of 25 amino acids; also called biotinylated LfcinB; biotin-labeled LfcinB; source: bought: Kelowna Inc
binds: all assays above
